Source: patent publication US20140087995A1 (published 2014)
Numbered stars: 1 amine (or outer) side, 2 acyl side, 3 side chain; on linkers, the order of the positions; unused ones are H or OH. Bridge positions count the residues as written; N and C are the ends. Side chains are listed from the residue outwards. Ends that are not written are not given here. * marks the point of attachment. C20 diacid = O=C(O)CCCCCCCCCCCCCCCCCCC(=O)*; γGlu = O=C(O)[C@H](CCC(=O)[*:2])N[*:1]; AEEA = NCCOCCOCC(=O)O

T1: rat calcitonin receptor (rat, UniProt P32214 25-516)
T1 construct: whole, on cells; Membranes prepared from transiently transfected BHK tk'ts 13 cells (Assay VIII); also called rCTR; rCT
T1 sequence (looked up): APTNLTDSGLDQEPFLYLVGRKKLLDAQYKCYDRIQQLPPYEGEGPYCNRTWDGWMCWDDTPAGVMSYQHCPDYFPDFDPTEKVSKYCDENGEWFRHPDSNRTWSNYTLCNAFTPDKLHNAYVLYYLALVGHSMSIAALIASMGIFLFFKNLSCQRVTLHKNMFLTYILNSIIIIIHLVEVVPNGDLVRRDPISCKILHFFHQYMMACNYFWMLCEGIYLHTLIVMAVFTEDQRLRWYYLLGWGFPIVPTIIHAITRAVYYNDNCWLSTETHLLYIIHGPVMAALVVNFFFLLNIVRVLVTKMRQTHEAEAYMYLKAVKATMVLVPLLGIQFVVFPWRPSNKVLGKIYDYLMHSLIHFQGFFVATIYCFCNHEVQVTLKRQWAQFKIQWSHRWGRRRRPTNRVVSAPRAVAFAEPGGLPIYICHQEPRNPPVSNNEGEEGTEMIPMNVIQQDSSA

T2: rat amylin receptor (rat calcitonin receptor + rat RAMP 3) (rat, UniProt P32214 25-516; Q9JJ73 23-147)
T2 construct: whole, on cells; Membranes prepared from transiently transfected BHK tk'ts 13 cells (Assay VI); also called rAmylin-R; rAmylin
T2 sequence (looked up) 1: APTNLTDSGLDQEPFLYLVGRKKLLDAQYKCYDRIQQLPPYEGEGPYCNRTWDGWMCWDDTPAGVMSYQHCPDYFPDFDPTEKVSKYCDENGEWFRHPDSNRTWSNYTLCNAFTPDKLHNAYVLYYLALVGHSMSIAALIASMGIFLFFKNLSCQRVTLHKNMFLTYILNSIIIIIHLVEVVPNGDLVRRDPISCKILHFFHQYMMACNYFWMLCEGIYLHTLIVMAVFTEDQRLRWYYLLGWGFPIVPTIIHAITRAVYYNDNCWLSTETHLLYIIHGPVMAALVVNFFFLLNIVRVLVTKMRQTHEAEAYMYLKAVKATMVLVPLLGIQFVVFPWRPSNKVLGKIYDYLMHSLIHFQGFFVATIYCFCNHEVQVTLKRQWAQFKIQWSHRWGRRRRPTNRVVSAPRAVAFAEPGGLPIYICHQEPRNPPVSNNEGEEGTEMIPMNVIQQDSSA
T2 sequence (looked up) 2: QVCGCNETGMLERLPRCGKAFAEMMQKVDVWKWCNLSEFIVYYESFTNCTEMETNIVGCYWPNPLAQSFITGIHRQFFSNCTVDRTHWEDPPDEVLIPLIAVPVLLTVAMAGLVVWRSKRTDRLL

T3: human calcitonin receptor (human, UniProt P30988 25-474)
T3 construct: whole, on cells; Membranes prepared from a stably transfected BHK cell line (Assay VII); also called hCTR; hCT
T3 sequence (looked up): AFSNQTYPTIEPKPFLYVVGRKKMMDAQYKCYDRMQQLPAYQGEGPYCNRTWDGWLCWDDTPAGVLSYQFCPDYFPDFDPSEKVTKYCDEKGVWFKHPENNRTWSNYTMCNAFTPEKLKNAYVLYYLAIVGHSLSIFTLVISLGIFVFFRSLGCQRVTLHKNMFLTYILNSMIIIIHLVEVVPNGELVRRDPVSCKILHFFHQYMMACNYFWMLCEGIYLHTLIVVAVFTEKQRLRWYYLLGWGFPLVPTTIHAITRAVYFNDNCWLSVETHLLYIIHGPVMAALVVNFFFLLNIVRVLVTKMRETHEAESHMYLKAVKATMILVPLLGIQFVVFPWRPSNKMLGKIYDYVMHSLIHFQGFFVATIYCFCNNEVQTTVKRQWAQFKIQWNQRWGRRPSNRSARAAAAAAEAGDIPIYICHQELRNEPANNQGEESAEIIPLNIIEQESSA

B1: N^ε1-[2-[2-[2-[[(4S)-4-carboxy-4-(19-carboxynonadecanoylamino)butanoyl]amino]ethoxy]ethoxy]acetyl]-[Gly14,Arg17,Pro21,Pro27,Pro31]-h-amylin (peptide)
peptide: K([AEEA-γGlu-C20 diacid])CNTATCATQRLAGFLRHSSPNFGAIPSSTPVGSNTY-NH2
modifications: disulfide 2-7; N-terminus assumed
SMILES: CC[C@H](C)[C@H](NC(=O)[C@H](C)NC(=O)CNC(=O)[C@H](Cc1ccccc1)NC(=O)[C@H](CC(N)=O)NC(=O)[C@@H]1CCCN1C(=O)[C@H](CO)NC(=O)[C@H](CO)NC(=O)[C@H](Cc1c[nH]cn1)NC(=O)[C@H](CCCNC(=N)N)NC(=O)[C@H](CC(C)C)NC(=O)[C@H](Cc1ccccc1)NC(=O)CNC(=O)[C@H](C)NC(=O)[C@H](CC(C)C)NC(=O)[C@H](CCCNC(=N)N)NC(=O)[C@H](CCC(N)=O)NC(=O)[C@@H](NC(=O)[C@H](C)NC(=O)[C@@H]1CSSC[C@H](NC(=O)[C@@H](N)CCCCNC(=O)COCCOCCNC(=O)CC[C@H](NC(=O)CCCCCCCCCCCCCCCCCCC(=O)O)C(=O)O)C(=O)N[C@@H](CC(N)=O)C(=O)N[C@@H]([C@@H](C)O)C(=O)N[C@@H](C)C(=O)N[C@@H]([C@@H](C)O)C(=O)N1)[C@@H](C)O)C(=O)N1CCC[C@H]1C(=O)N[C@@H](CO)C(=O)N[C@@H](CO)C(=O)N[C@H](C(=O)N1CCC[C@H]1C(=O)N[C@H](C(=O)NCC(=O)N[C@@H](CO)C(=O)N[C@@H](CC(N)=O)C(=O)N[C@H](C(=O)N[C@@H](Cc1ccc(O)cc1)C(N)=O)[C@@H](C)O)C(C)C)[C@@H](C)O
notes: Analogue of human amylin; also called compound 71
B2: N^ε1-[2-[2-[2-[[(4S)-4-carboxy-4-(19-carboxynonadecanoylamino)butanoyl]amino]ethoxy]ethoxy]acetyl]-[His14,Arg17,Pro21,Pro27,Arg34]-h-amylin (peptide)
peptide: K([AEEA-γGlu-C20 diacid])CNTATCATQRLAHFLRHSSPNFGAIPSSTNVGRNTY-NH2
modifications: disulfide 2-7; N-terminus assumed
SMILES: CC[C@H](C)[C@H](NC(=O)[C@H](C)NC(=O)CNC(=O)[C@H](Cc1ccccc1)NC(=O)[C@H](CC(N)=O)NC(=O)[C@@H]1CCCN1C(=O)[C@H](CO)NC(=O)[C@H](CO)NC(=O)[C@H](Cc1c[nH]cn1)NC(=O)[C@H](CCCNC(=N)N)NC(=O)[C@H](CC(C)C)NC(=O)[C@H](Cc1ccccc1)NC(=O)[C@H](Cc1c[nH]cn1)NC(=O)[C@H](C)NC(=O)[C@H](CC(C)C)NC(=O)[C@H](CCCNC(=N)N)NC(=O)[C@H](CCC(N)=O)NC(=O)[C@@H](NC(=O)[C@H](C)NC(=O)[C@@H]1CSSC[C@H](NC(=O)[C@@H](N)CCCCNC(=O)COCCOCCNC(=O)CC[C@H](NC(=O)CCCCCCCCCCCCCCCCCCC(=O)O)C(=O)O)C(=O)N[C@@H](CC(N)=O)C(=O)N[C@@H]([C@@H](C)O)C(=O)N[C@@H](C)C(=O)N[C@@H]([C@@H](C)O)C(=O)N1)[C@@H](C)O)C(=O)N1CCC[C@H]1C(=O)N[C@@H](CO)C(=O)N[C@@H](CO)C(=O)N[C@H](C(=O)N[C@@H](CC(N)=O)C(=O)N[C@H](C(=O)NCC(=O)N[C@@H](CCCNC(=N)N)C(=O)N[C@@H](CC(N)=O)C(=O)N[C@H](C(=O)N[C@@H](Cc1ccc(O)cc1)C(N)=O)[C@@H](C)O)C(C)C)[C@@H](C)O
notes: Analogue of human amylin; also called compound 84
B3: N^ε1-[2-[2-[2-[[(4S)-4-carboxy-4-(19-carboxynonadecanoylamino)butanoyl]amino]ethoxy]ethoxy]acetyl]-[His14,Arg17,Pro21,Pro27,His34]-h-amylin (peptide)
peptide: K([AEEA-γGlu-C20 diacid])CNTATCATQRLAHFLRHSSPNFGAIPSSTNVGHNTY-NH2
modifications: disulfide 2-7; N-terminus assumed
SMILES: CC[C@H](C)[C@H](NC(=O)[C@H](C)NC(=O)CNC(=O)[C@H](Cc1ccccc1)NC(=O)[C@H](CC(N)=O)NC(=O)[C@@H]1CCCN1C(=O)[C@H](CO)NC(=O)[C@H](CO)NC(=O)[C@H](Cc1c[nH]cn1)NC(=O)[C@H](CCCNC(=N)N)NC(=O)[C@H](CC(C)C)NC(=O)[C@H](Cc1ccccc1)NC(=O)[C@H](Cc1c[nH]cn1)NC(=O)[C@H](C)NC(=O)[C@H](CC(C)C)NC(=O)[C@H](CCCNC(=N)N)NC(=O)[C@H](CCC(N)=O)NC(=O)[C@@H](NC(=O)[C@H](C)NC(=O)[C@@H]1CSSC[C@H](NC(=O)[C@@H](N)CCCCNC(=O)COCCOCCNC(=O)CC[C@H](NC(=O)CCCCCCCCCCCCCCCCCCC(=O)O)C(=O)O)C(=O)N[C@@H](CC(N)=O)C(=O)N[C@@H]([C@@H](C)O)C(=O)N[C@@H](C)C(=O)N[C@@H]([C@@H](C)O)C(=O)N1)[C@@H](C)O)C(=O)N1CCC[C@H]1C(=O)N[C@@H](CO)C(=O)N[C@@H](CO)C(=O)N[C@H](C(=O)N[C@@H](CC(N)=O)C(=O)N[C@H](C(=O)NCC(=O)N[C@@H](Cc1c[nH]cn1)C(=O)N[C@@H](CC(N)=O)C(=O)N[C@H](C(=O)N[C@@H](Cc1ccc(O)cc1)C(N)=O)[C@@H](C)O)C(C)C)[C@@H](C)O
notes: Analogue of human amylin; also called compound 80
B4: N^ε1-[2-[2-[2-[[(4S)-4-carboxy-4-(19-carboxynonadecanoylamino)butanoyl]amino]ethoxy]ethoxy]acetyl]-[His14,Arg17,Pro21,Pro27,Pro31]-h-amylin (peptide)
peptide: K([AEEA-γGlu-C20 diacid])CNTATCATQRLAHFLRHSSPNFGAIPSSTPVGSNTY-NH2
modifications: disulfide 2-7; N-terminus assumed
SMILES: CC[C@H](C)[C@H](NC(=O)[C@H](C)NC(=O)CNC(=O)[C@H](Cc1ccccc1)NC(=O)[C@H](CC(N)=O)NC(=O)[C@@H]1CCCN1C(=O)[C@H](CO)NC(=O)[C@H](CO)NC(=O)[C@H](Cc1c[nH]cn1)NC(=O)[C@H](CCCNC(=N)N)NC(=O)[C@H](CC(C)C)NC(=O)[C@H](Cc1ccccc1)NC(=O)[C@H](Cc1c[nH]cn1)NC(=O)[C@H](C)NC(=O)[C@H](CC(C)C)NC(=O)[C@H](CCCNC(=N)N)NC(=O)[C@H](CCC(N)=O)NC(=O)[C@@H](NC(=O)[C@H](C)NC(=O)[C@@H]1CSSC[C@H](NC(=O)[C@@H](N)CCCCNC(=O)COCCOCCNC(=O)CC[C@H](NC(=O)CCCCCCCCCCCCCCCCCCC(=O)O)C(=O)O)C(=O)N[C@@H](CC(N)=O)C(=O)N[C@@H]([C@@H](C)O)C(=O)N[C@@H](C)C(=O)N[C@@H]([C@@H](C)O)C(=O)N1)[C@@H](C)O)C(=O)N1CCC[C@H]1C(=O)N[C@@H](CO)C(=O)N[C@@H](CO)C(=O)N[C@H](C(=O)N1CCC[C@H]1C(=O)N[C@H](C(=O)NCC(=O)N[C@@H](CO)C(=O)N[C@@H](CC(N)=O)C(=O)N[C@H](C(=O)N[C@@H](Cc1ccc(O)cc1)C(N)=O)[C@@H](C)O)C(C)C)[C@@H](C)O
notes: Analogue of human amylin; also called compound 61
B5: N^ε1-[2-[2-[2-[[(4S)-4-carboxy-4-(19-carboxynonadecanoylamino)butanoyl]amino]ethoxy]ethoxy]acetyl]-[His14,Arg17,Pro21,Pro27,Pro34]-h-amylin (peptide)
peptide: K([AEEA-γGlu-C20 diacid])CNTATCATQRLAHFLRHSSPNFGAIPSSTNVGPNTY-NH2
modifications: disulfide 2-7; N-terminus assumed
SMILES: CC[C@H](C)[C@H](NC(=O)[C@H](C)NC(=O)CNC(=O)[C@H](Cc1ccccc1)NC(=O)[C@H](CC(N)=O)NC(=O)[C@@H]1CCCN1C(=O)[C@H](CO)NC(=O)[C@H](CO)NC(=O)[C@H](Cc1c[nH]cn1)NC(=O)[C@H](CCCNC(=N)N)NC(=O)[C@H](CC(C)C)NC(=O)[C@H](Cc1ccccc1)NC(=O)[C@H](Cc1c[nH]cn1)NC(=O)[C@H](C)NC(=O)[C@H](CC(C)C)NC(=O)[C@H](CCCNC(=N)N)NC(=O)[C@H](CCC(N)=O)NC(=O)[C@@H](NC(=O)[C@H](C)NC(=O)[C@@H]1CSSC[C@H](NC(=O)[C@@H](N)CCCCNC(=O)COCCOCCNC(=O)CC[C@H](NC(=O)CCCCCCCCCCCCCCCCCCC(=O)O)C(=O)O)C(=O)N[C@@H](CC(N)=O)C(=O)N[C@@H]([C@@H](C)O)C(=O)N[C@@H](C)C(=O)N[C@@H]([C@@H](C)O)C(=O)N1)[C@@H](C)O)C(=O)N1CCC[C@H]1C(=O)N[C@@H](CO)C(=O)N[C@@H](CO)C(=O)N[C@H](C(=O)N[C@@H](CC(N)=O)C(=O)N[C@H](C(=O)NCC(=O)N1CCC[C@H]1C(=O)N[C@@H](CC(N)=O)C(=O)N[C@H](C(=O)N[C@@H](Cc1ccc(O)cc1)C(N)=O)[C@@H](C)O)C(C)C)[C@@H](C)O
notes: Analogue of human amylin; also called compound 68

Legend:
[1] = molecular target: T1, rat calcitonin receptor; assay: ratio of binding IC50s: rat calcitonin receptor / rat amylin receptor (reference)
[2] = molecular target: T1, rat calcitonin receptor; assay: SPA competition vs 125I-calcitonin, membranes of BHK cells with rat calcitonin receptor (Assay VIII)
[3] = molecular target: T2, rat amylin receptor (rat calcitonin …); assay: SPA competition vs 125I-rat amylin, membranes of BHK cells with rat calcitonin receptor + rat RAMP3 (Assay VI)
[4] = molecular target: T3, human calcitonin receptor; assay: ratio of binding IC50s: human calcitonin receptor / human amylin receptor (reference)
How it was run: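 Competition binding by SPA uses membrane preparations (35 ng/μL final) in pH 7.4 Hepes buffer with 1 mM CaCl2 and 5 mM MgCl₂. Incubation lasts 120 min at 25° C, and IC₅₀ comes from one-site fitting.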

Row | Binder | Ratio rCT/rAmylin binding [1] | IC50 [2] | IC50 [3] | Ratio hCT/hAmylin binding [4]
1 | B1 | 162 | 0.0448 µM | 0.000276 µM | 32
2 | B2 | 94.3 | 0.477 µM | 0.00505 µM | 120
3 | B3 | 36.2 | 0.0604 µM | 0.00167 µM | 68.1
4 | B4 | 39.7 | 0.0334 µM | 0.000842 µM | 66.7
5 | B5 | 122 | 0.0285 µM | 0.000234 µM | 64.4
